# T1: Gα12 (Homo sapiens, UniProt Q03113)
# T1 construct: host or cells: HEK293
# T1 sequence (Q03113 1-381): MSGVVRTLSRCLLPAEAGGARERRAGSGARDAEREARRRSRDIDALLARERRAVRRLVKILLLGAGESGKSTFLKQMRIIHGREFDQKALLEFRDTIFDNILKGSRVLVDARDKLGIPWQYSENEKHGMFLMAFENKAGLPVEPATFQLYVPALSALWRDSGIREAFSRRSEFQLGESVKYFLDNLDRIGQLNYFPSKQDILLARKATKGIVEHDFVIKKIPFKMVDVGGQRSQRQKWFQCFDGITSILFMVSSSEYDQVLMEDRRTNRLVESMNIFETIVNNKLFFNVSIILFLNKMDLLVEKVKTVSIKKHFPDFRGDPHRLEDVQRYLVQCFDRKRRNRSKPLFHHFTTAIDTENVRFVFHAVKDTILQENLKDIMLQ
# T2: Gα13 (Homo sapiens, UniProt Q14344)
# T2 sequence (Q14344 1-377): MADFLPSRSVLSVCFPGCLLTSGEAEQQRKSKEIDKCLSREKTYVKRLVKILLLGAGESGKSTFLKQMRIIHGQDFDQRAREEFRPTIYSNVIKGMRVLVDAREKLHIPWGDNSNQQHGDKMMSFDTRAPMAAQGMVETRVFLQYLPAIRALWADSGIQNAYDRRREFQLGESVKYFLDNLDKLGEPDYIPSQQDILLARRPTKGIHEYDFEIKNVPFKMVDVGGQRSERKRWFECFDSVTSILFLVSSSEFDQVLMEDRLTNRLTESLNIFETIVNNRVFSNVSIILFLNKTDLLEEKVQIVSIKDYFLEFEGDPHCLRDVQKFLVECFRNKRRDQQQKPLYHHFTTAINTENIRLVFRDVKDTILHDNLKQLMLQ
# T3: Gαq (Homo sapiens, UniProt P50148)
# T3 sequence (P50148 1-359): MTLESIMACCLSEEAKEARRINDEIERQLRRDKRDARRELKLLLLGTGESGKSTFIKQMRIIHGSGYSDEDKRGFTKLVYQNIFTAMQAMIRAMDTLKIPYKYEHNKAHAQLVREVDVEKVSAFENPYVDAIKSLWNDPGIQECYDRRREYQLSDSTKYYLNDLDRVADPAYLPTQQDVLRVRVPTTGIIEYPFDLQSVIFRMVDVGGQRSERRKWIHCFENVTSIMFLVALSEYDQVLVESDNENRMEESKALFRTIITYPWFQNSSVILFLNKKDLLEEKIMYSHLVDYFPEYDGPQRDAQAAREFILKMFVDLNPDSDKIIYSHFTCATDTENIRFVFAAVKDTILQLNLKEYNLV
# Columns and labels:
# [1] = target: Delta Opioid GPCR (Homo sapiens, UniProt P41143); assay: Activation assay format 2A on Delta Opioid GPCR, agonist/antagonist modulation of TR-FRET signal; conditions: fixed SNC162 200 nM; increasing concentration of antagonist; GTPgN-octyl-C2 + DSV36S-d2; FIG. 16B
# Chain of Delta Opioid GPCR (P41143 whole entry): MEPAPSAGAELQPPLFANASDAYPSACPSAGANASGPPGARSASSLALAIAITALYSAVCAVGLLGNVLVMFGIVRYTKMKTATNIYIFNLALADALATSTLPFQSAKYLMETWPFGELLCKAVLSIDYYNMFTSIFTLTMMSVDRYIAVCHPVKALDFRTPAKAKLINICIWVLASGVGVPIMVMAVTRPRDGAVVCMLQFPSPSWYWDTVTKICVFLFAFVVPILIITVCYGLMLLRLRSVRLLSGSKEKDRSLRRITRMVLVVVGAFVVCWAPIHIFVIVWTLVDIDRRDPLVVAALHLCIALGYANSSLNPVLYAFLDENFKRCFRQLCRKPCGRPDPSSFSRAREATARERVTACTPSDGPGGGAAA
# [2] = target: T4, DOR receptors (Homo sapiens, UniProt P41143); assay: Activation of DOR in HEK293 membranes read by TR-FRET (fluorescent GTP analog + labeled antibody); type: biochemical; conditions: SNC162 10 μM; read as increase of FRET signal with DSV36S-d2 / DSV38S-d2
# T4 construct: expressed in transfected cells; host or cells: HEK293 membranes
# T4 sequence (P41143 whole entry): as above
# Protocol: (§1) HEK293 membranes expressing the DOR receptor were prepared 4× for a final amount in the wells of 10 μg. The antibodies DSV36S-d2, DSV38S-d2, SC13533-d2 and anti-FLAG-d2 were prepared 4× for a final concentration in the wells of 10 nM.
# (§2) The reagents were distributed in the 384-well plates as follows: • 1) 5 μl of DOR membranes was put in each well, • 2) 5 μl of GTPgN-octyl-C2 labeled with europium cryptate or GTPgO-linker-Cy5 was added to each well, • 3) 5 μl of antibody DSV36S or DSV38S or SC13533 or DSV 26S or DSV3S or DSV 39S labeled with d2 or DSV 36S or SC13533 labeled with terbium cryptate was added to each well, • 4) 5 μl of buffer or SNC 162 or GTPgS was added to each well.
# (§3) The plates were incubated for 20 h at room temperature before reading the HTRF signal.
# [3] = target: T5, Gαi1 (Homo sapiens, UniProt P63096); assay: HTRF competition: unlabeled antibodies versus binding of SC13533-d2 on G-protein αi1; conditions: unlabeled antibody 0.01-100 nM; SC13533-d2 10 nM; GTPgS 10 μM
# T5 sequence (P63096 whole entry): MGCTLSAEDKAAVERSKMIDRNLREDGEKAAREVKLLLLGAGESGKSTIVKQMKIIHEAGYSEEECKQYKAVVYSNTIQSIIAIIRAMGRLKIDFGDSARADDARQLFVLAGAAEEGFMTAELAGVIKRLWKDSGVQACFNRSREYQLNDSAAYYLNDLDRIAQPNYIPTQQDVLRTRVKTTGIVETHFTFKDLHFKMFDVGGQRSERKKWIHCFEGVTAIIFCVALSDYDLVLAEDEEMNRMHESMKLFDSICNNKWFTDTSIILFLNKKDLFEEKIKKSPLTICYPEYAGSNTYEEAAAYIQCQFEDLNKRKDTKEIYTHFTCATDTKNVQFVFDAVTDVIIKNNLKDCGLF
# Protocol: (§4) These two reagents were prepared in one and the same solution and were preincubated for 30 minutes at room temperature before being distributed in the wells. The cold antibodies DSV36S, DSV38S and SC13533 were prepared 4× for final concentrations in the wells between 0.01 and 100 nM. The antibody SC 13533-d2 was prepared 4× for a final concentration of 10 nM.
# (§5) The reagents were distributed in the 384-well plates as follows: • 1) 10 μl of the preincubated mixture of G-protein αi1+GTPgS was put in each well, • 2) 5 μl of the unlabeled antibody DSV36S or DSV38S or SC56536 or AM05302PU-N or SC13533 was added to each well, • 3) The plates were incubated for 30 minutes at room temperature, • 4) 5 μl of the anti Twin-Strep-tag-Lumi4 Tb antibody and of the antibody SC13533-d2 were added to each well.
# (§6) The plates were incubated for 1 h at room temperature before reading the HTRF signal.
# [4] = target: T6, Gαi3 (Homo sapiens, UniProt P08754); assay: HTRF selectivity assay, G-protein α overexpressed in HEK293 cells; type: binding; conditions: antibody-d2 10 nM, 20 h
# T6 construct: host or cells: HEK293
# T6 sequence (P08754 whole entry): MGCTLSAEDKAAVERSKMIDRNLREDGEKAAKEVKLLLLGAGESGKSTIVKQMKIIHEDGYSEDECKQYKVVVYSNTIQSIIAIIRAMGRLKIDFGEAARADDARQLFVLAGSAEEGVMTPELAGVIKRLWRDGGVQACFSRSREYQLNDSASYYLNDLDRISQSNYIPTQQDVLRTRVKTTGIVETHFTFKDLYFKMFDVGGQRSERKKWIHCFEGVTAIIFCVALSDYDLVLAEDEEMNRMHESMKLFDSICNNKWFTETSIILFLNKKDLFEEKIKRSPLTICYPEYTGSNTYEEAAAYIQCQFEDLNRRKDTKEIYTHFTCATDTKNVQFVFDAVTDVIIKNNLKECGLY
# Protocol: (§7) A solution containing 1 million HEK cells/ml was prepared in OptiMEM medium. Mixtures of plasmids/Lipofectamine containing 150 ng/well of plasmids and 0.375 μl of lipofectamine were prepared in OptiMEM medium 30 minutes before adding them to the 96-well plate with black-bottomed wells.
# (§8) Distribution of the reagents in each well of the black microplate suitable for cell culture: • 1) 50 μl per well of polyornithine was incubated for 30 minutes at room temperature and then the solution was withdrawn from each well by aspiration. • 2) 50 μl of the preparation of HEK293 (cell density of 50000 cells per well) was added to each well • 3) 50 μl of the mixture of plasmids coding for a G-protein+lipofectamine was added to each well.
# (§9) The microplates were incubated for 24 h at 37° C. and 5% CO2 (regulated stove).
# (§10) The antibodies DSV36S-d2, DSV38S-d2 and SC13533-d2 were prepared 4× for a final concentration in the wells of 10 nM.
# (§11) The reagents were distributed on the 384-well plates as follows: • 1) The OptiMEM culture medium was aspirated, • 2) 25 μl of buffer or GDP or GTP was added to each well, • 3) 25 μl of buffer was added to each well, • 4) 25 μl of antibody DSV36S-d2 or DSV38S-d2 or SC13533-d2 or anti-FLAG-d2 was added to each well, • 5) 25 μl of anti Twin-Strep-tag-Lumi4 Tb antibody was added to each well.
# (§12) The microplates were incubated for 20 h at room temperature before reading the HTRF signal.
# [5] = target: Gαi2 (Homo sapiens, UniProt P04899); assay: as above; type: binding; conditions: antibody-d2 10 nM, 20 h
# Chain of Gαi2 (P04899 whole entry): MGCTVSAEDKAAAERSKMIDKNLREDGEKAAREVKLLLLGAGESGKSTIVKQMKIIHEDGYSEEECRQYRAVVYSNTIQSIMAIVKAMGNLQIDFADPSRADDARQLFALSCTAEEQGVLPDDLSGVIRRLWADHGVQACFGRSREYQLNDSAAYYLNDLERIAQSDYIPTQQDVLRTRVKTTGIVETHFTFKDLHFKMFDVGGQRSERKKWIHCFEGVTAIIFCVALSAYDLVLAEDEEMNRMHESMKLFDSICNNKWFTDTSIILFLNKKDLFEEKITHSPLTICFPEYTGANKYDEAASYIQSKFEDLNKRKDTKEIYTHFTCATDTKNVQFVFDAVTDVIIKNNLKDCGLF
# Protocol: as §7, §8, §9, §10, §11, §12
# [6] = target: T7, Gαz (Homo sapiens, UniProt P19086); assay: as above; type: binding; conditions: antibody-d2 10 nM, 20 h
# T7 construct: host or cells: HEK293
# T7 sequence (P19086 whole entry): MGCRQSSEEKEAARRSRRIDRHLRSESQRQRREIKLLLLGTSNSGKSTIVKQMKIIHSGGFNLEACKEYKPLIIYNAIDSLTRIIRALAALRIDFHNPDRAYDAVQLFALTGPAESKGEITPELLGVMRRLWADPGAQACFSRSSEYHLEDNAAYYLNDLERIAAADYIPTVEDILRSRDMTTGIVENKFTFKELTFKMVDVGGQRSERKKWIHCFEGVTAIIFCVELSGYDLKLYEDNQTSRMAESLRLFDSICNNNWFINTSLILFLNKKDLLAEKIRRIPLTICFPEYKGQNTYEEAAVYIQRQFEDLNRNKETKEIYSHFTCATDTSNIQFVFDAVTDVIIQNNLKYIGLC
# Protocol: as §7, §8, §9, §10, §11, §12
# [7] = target: T1, Gα12; assay: as above; type: binding; conditions: antibody-d2 10 nM, 20 h
# Protocol: as §7, §8, §9, §10, §11, §12
# [8] = target: Gαs (Homo sapiens, UniProt P63092); assay: as above; type: binding; conditions: antibody-d2 10 nM, 20 h
# Chain of Gαs (P63092 whole entry): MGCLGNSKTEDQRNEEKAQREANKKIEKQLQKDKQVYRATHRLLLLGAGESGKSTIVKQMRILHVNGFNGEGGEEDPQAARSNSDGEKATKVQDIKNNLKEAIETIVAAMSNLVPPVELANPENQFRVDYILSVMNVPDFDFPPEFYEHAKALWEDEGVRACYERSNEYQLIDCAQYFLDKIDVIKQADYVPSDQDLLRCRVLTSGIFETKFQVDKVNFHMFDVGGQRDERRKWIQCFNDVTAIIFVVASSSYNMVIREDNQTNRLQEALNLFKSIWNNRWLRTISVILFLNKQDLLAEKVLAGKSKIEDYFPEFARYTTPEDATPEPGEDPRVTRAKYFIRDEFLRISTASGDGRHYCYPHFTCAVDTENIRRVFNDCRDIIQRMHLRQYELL
# Protocol: as §7, §8, §9, §10, §11, §12
# [9] = target: T2, Gα13; assay: as above; type: binding; conditions: antibody-d2 10 nM, 20 h
# Protocol: as §7, §8, §9, §10, §11, §12
# [10] = target: Gαo (Homo sapiens, UniProt P09471); assay: as above; type: binding; conditions: antibody-d2 10 nM, 20 h
# Chain of Gαo (P09471 whole entry): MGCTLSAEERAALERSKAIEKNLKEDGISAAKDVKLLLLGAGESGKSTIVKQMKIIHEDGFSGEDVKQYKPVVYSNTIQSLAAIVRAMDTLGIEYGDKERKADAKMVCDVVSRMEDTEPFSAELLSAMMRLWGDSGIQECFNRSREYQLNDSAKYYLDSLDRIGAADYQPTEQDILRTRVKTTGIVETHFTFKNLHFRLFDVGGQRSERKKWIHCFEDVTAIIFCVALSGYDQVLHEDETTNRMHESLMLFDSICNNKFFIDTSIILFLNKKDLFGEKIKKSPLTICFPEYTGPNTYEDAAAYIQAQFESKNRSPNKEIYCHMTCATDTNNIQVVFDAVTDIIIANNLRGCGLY
# Protocol: as §7, §8, §9, §10, §11, §12
# [11] = target: T5, Gαi1; assay: as above; type: binding; conditions: antibody-d2 10 nM, 20 h
# Protocol: as §7, §8, §9, §10, §11, §12
# [12] = target: T3, Gαq; assay: as above; type: binding; conditions: antibody-d2 10 nM, 20 h
# Protocol: as §7, §8, §9, §10, §11, §12
# [13] = target: T5, Gαi1; assay: Determination of affinity (Kd) of d2-labeled antibodies for G-protein αi1 by HTRF/FRET; type: binding
# Protocol: These two reagents were prepared in one and the same solution and were preincubated for 30 minutes at room temperature before being distributed in the wells. The antibodies DSV36S-d2, DSV38S-d2 and SC13533-d2 were prepared 4× for final concentrations in the wells between 0.01 and 10 nM depending on the antibodies.
# The reagents were distributed in the 384-well plates as follows: • 1) 10 μl of the preincubation mixture of G-protein αi1+buffer only or GTPgS or GDP was put in each well, • 2) 5 μl of the antibody DSV36S or DSV38S or SC13533 labeled with d2 was added to each well, • 3) 5 μl of the anti Twin-Strep-tag-Lumi4 Tb antibody was added to each well.
# The plates were incubated for 24 h at room temperature before reading the HTRF signal.
# Moreover, the antibody titration curves obtained make it possible to calculate the affinity (Kd) of these different antibodies for the G-protein αi1. This was carried out using the GraphPad Prism software by applying a “one site specific binding” model to the HTRF data.
# [14] = system: G-proteins α; assay: TR-FRET signal of labeled antibody combined with fluorescent GTP analog on HEK293 membranes expressing the DOR receptor; type: binding; conditions: for FRET signal with GTPgN-octyl-C2-Europium cryptate: antibody labeled with d2 10 nM, GTP analog 6 nM, FIG. 11
# Protocol: as §1, §2, §3
# [15] = target: T5, Gαi1; assay: HTRF competition: unlabeled antibodies versus binding of DSV36S-d2 on G-protein αi1; conditions: unlabeled antibody 0.001-1 μM; DSV36S-d2 10 nM; GTPgS 100 μM
# Protocol: as §4, with “DSV38S, DSV26S, DSV3S,” for “DSV38S”, “DSV39S” for “SC13533”, “0.001” for “0.01”, “1 μM.” for “100 nM.”, “DSV36S-d2” for “SC 13533-d2”
# as §5, with “antibodies DSV36S, DSV38S, DSV26S, DSV3S, and DSV39S” for “antibody DSV36S or DSV38S or SC56536 or AM05302PU-N or SC13533”, “DSV36S-d2” for “SC13533-d2”
# as §6
molecule,measurement,setting,value
Oc1ccc2c3c1O[C@H]1c4[nH]c5ccccc5c4C[C@@]4(O)[C@@H](C2)N(CC2CC2)CC[C@]314 [Naltrindole],"effect on activation by SNC162 (TR-FRET signal, HTRF ratio)",[1],inhibited
C=CCN1C[C@H](C)N([C@@H](c2ccccc2)c2ccc(C(=O)N(CC)CC)cc2)C[C@H]1C [SNC162],activation of the DOR receptors overexpressed in the membranes,[2],caused activation of the DOR receptors
"DSV36S: anti-G-protein alpha antibody; VH consists of SEQ ID NO: 14, VL of SEQ ID NO: 15; generated by Cisbio Bioassays (antibody, V domains shown, Variable domain of the heavy chain (VH); Light Chain Variable Domain (VL), anti-G-protein alpha antibody; generated by Cisbio Bioassays) VH: EVQLQQSGAELVRPGALVKLSCKASGFNIKDYYMHWVKQRPEQGLEWIGWIDPENGNTIYDPKFQGKASITADTSSNTAYLQLSSLTSEDTAVYYCTRGGGYYSDWYFDVWGAGTTVTVSS VL: QIVLTQSPAIMSASPGEKVTMTCSASSSVSYMHWYQQKSGTSPKRWIYDTSKLASGVPARFSGSGSGTSYSLTISSMEAEDAATYYCQQWSSNPPITFGAGTKLELK",inhibition of the HTRF signal obtained with antibody SC13533-d2,[3],not capable of inhibiting
same,HTRF signal with anti-Twin-Strep-tag-Lumi4 Tb,[4],positive HTRF signal
same,HTRF signal with anti-Twin-Strep-tag-Lumi4 Tb,[5],positive HTRF signal
same,HTRF signal with anti-Twin-Strep-tag-Lumi4 Tb,[6],positive HTRF signal
same,HTRF signal with anti-Twin-Strep-tag-Lumi4 Tb,[7],did not give an HTRF signal
same,HTRF signal with anti-Twin-Strep-tag-Lumi4 Tb,[8],did not give an HTRF signal
same,HTRF signal with anti-Twin-Strep-tag-Lumi4 Tb,[9],did not give an HTRF signal
same,HTRF signal with anti-Twin-Strep-tag-Lumi4 Tb,[10],positive HTRF signal
same,HTRF signal with anti-Twin-Strep-tag-Lumi4 Tb,[11],positive HTRF signal
same,HTRF signal with anti-Twin-Strep-tag-Lumi4 Tb,[12],did not give an HTRF signal
same,signal and affinity depending on the state of G-protein αi1,[13]; G-protein αi1 bound to a nucleotide (in particular GTPgS) versus empty,higher signal and higher affinity
same,capacity for binding the G-protein αi1 (HTRF signal),"[13]; antibodies labeled with d2, in the presence and in the absence of nucleotide (GTPgS or GDP)",capable of binding the G-protein αi1
same,FRET signal with GTPgN-octyl-C2-Europium cryptate,[14]; condition buffer (absence of SNC162),moderate but significant FRET signal
same,FRET signal with GTPgN-octyl-C2-Europium cryptate,[14]; on adding SNC162 10 μM,increase of this FRET signal
same,FRET signal with Europium GTPgN-octyl-C2-cryptate,"[14]; unactivated membrane preparations, antibodies labeled with d2, FIG. 12",increase of the FRET signal
same,inhibition of the HTRF signal obtained with antibody DSV36S-d2,[15],completely inhibited
